This note sets out measurements from patent US20250295802A1, “HER3 ANTIBODY-DRUG CONJUGATE AND USE THEREOF” (DUALITY BIOLOGICS (SUZHOU) CO., LTD., priority 2022, published 2025).

For assay [1], the target named is HER3 on tumor cell lines (NCI-N87, MDA-MB-468, MDA-MB-453, HCC1569 and other cells with different HER3 surface levels) (UniProt P21860). Put plainly: cell-based or functional assay.
In assay [2] the target is T1, human HER3-huFc (human, UniProt P21860 20-643).
T1 construct: also called huHER3; not shown: human Fc (huFc)
In words: ELISA, 0 days at 40 °C. The method, then:
(§1) Antibody stability test: the purified antibody at 5 mg/mL was stored at 4° C. as regular practice, incubated at 40° C. for 7 days and 14 days for heat stability evaluation, transferred to a glycine solution at pH 3.5 for regeneration, and stored for 2, 4 and 6 h for acid stability evaluation, or subjected to repeated freeze-thaw treatments for 4 or 6 cycles for freeze-thaw stability evaluation. Aggregation was measured by SEC-HPLC, and binding affinity was determined by ELISA.
(§2) The chimeric antibody 3F8 was subjected to parallel assay.

Assay [3] deals with T1, human HER3-huFc. In words: ELISA, 0 freeze-thaw cycles. (In general: ELISA stands for enzyme-linked immunosorbent assay.)
In assay [4] the target is T2, His-HER3 (UniProt P21860 20-643, limits assumed).
T2 construct: Analyte of the Biacore assay; not shown: His tag
Put plainly: SPR, Biacore T200, antibody captured on protein A chip, His-HER3 as analyte. On the procedure: Affinity assay by surface plasmon resonance (SPR): antibody kinetics and affinity were determined using Biacore T200. Briefly, the recombinant human HER3 antibody was immobilized on a protein A chip (GE, Cat. 29-1275-5).
The binding affinity of humanized 3F8 (hu3F8) and chimeric 3F8. Binding kinetics of 3 humanized 3F8 clones and chimeric 3F8 were determined by Biacore. Three humanized 3F8 clones (clone 1, clone 2 and clone 3) had different heavy chains and one identical light chain. Clone 1, clone 2, and clone 3 corresponded to hu3F8-1, hu3F8-2, and hu3F8-3, respectively.
On the technique in general: In SPR one partner is held on a chip, and binding of the other changes the refractive index at the surface.

Assay [5] concerns the target HER3 on tumor cell lines (NCI-N87, MDA-MB-468, MDA-MB-453, HCC1569 and other cells with different HER3 … (UniProt P21860 20-1342, limits assumed)). In words: cell-based or functional assay.
In assay [6] the target is T1, human HER3-huFc. Put plainly: ELISA after 7 days at 40 °C. On the procedure: as §1, §2
In assay [7] the target is T1, human HER3-huFc. Put plainly: ELISA after 14 days at 40 °C. The method, then:
as §1, §2

Assay [8] has as its target T1, human HER3-huFc. In words: ELISA after 3 freeze-thaw cycles.
Assay [9] deals with T1, human HER3-huFc. Put plainly: ELISA after 5 freeze-thaw cycles.
Assay [10] addresses T1, human HER3-huFc. In words: ELISA after 0 h of incubation at pH 3.5. The method, then:
as §1
(§3) EC50 was determined by ELISA.

Assay [11] addresses T1, human HER3-huFc. In words: ELISA after 2 h of incubation at pH 3.5. The method, then:
as §1, §3

Assay [12] addresses T1, human HER3-huFc. In words: ELISA after 4 h of incubation at pH 3.5. On the procedure: as §1, §3
The target of assay [13] is T1, human HER3-huFc. Put plainly: ELISA after 6 h of incubation at pH 3.5. The method, then: as §1, §3
The target of assay [14] is T1, human HER3-huFc. In words: ELISA after 0 h of incubation at pH 3.5; 0 h of incubation at pH 3.5 (untreated time point). The method, then: as §1, §3

For Reference ADC-1 (U3-1402) (antibody), in [1], the HCC1569 IC50 (nM), inhibition of in vitro proliferation (CTG, 6 days) is 40.7 nM and the MDA-MB-453 IC50 (nM), inhibition of in vitro proliferation (CTG, 6 days) turned out to be 9.62 nM.

B1: chimeric 3F8 antibody (antibody, human IgG1, V domains shown)
VH: DVQLQESGPGLVKPSQSLSLTCSVTGYSITSAYYWNWIRQFPGDKLEWMGYISYDGRNNFNPSLKNRISITRDTSKNQFFLKLNSVTSGDTATYYCARDGDYDYFDYWGQGTTLTVSS
VL: DIQMTQTTSSLSASLGDRVTISCRASQDISNYLNWYQQKPDGTFKLLIYYTSILHSGVPSRFSGSGSGTDYSLTISNLEQEDIATYFCQQGDTLPPTFGAGTKLELK
notes: also called ch3F8; Chimeric antibody
What is called EC50 is the concentration at which the effect is half-maximal. By Kd is commonly meant the concentration at which binding is half-saturated. The koff is the first-order rate constant of dissociation. A low value points to slow dissociation. For orientation: kon means a measure of how fast the partners come together. B1 had an EC50 in assay [2] of 0.0474 µg/mL. This molecule also showed an EC50 in [3] of 0.0471 µg/mL. In [4], this molecule registered a Kd of 624 pM, a koff of 0.000391 s⁻¹ and an association rate constant (kon) of 628000 M⁻¹ s⁻¹.

B2: antibody-drug conjugate ADC-1-X1 (hu3F8-2-X1) (antibody, human IgG1, kappa, V domains shown)
VH: QVQLQESGPGLVKPSETLSLTCTVSGYSITSAYYWNWIRQPFGKGLEWMGYISYDGRNNFNPSLKNRVTISRDTSKNQFSLKLSSVTAADTAVYYCARDGDYDYFDYWGQGTTVTVSS
VL: DIQMTQSPSSLSASVGDRVTITCRASQDISNYLNWYQQKPGKAPKLLIYYTSILHSGVPSRFSGSGSGTDYTFTISSLQPEDIATYFCQQGDTLPPTFGGGTKLEIKR
modifications: linker-payload X1 coupled after TCEP reduction; positions not given; linker-payload X1 coupled after TCEP reduction; positions not given; DAR 7.12 for the whole antibody
In the case of B2, in assay [5], the “HCC1569 IC50 (nM), inhibition of in vitro proliferation (CTG, 6 days)” value worked out at 0.115 nM and the “MDA-MB-453 IC50 (nM), inhibition of in vitro proliferation (CTG, 6 days)” value came out at 0.042 nM.

B3: antibody-drug conjugate ADC-1-X2 (hu3F8-2-X2) (antibody, human IgG1, kappa, V domains shown)
VH: QVQLQESGPGLVKPSETLSLTCTVSGYSITSAYYWNWIRQPFGKGLEWMGYISYDGRNNFNPSLKNRVTISRDTSKNQFSLKLSSVTAADTAVYYCARDGDYDYFDYWGQGTTVTVSS
VL: DIQMTQSPSSLSASVGDRVTITCRASQDISNYLNWYQQKPGKAPKLLIYYTSILHSGVPSRFSGSGSGTDYTFTISSLQPEDIATYFCQQGDTLPPTFGGGTKLEIKR
modifications: linker-payload X2 coupled after TCEP reduction; positions not given; linker-payload X2 coupled after TCEP reduction; positions not given; DAR 7.53 for the whole antibody
As to B3, in [5], the “HCC1569 IC50 (nM), inhibition of in vitro proliferation (CTG, 6 days)” value came to 5.17 nM and the “MDA-MB-453 IC50 (nM), inhibition of in vitro proliferation (CTG, 6 days)” value worked out at 0.094 nM.

B4: humanized 3F8 antibody hu3F8-2 (antibody, human IgG1, kappa, V domains shown)
VH: QVQLQESGPGLVKPSETLSLTCTVSGYSITSAYYWNWIRQPFGKGLEWMGYISYDGRNNFNPSLKNRVTISRDTSKNQFSLKLSSVTAADTAVYYCARDGDYDYFDYWGQGTTVTVSS
VL: DIQMTQSPSSLSASVGDRVTITCRASQDISNYLNWYQQKPGKAPKLLIYYTSILHSGVPSRFSGSGSGTDYTFTISSLQPEDIATYFCQQGDTLPPTFGGGTKLEIKR
notes: also called Clone 2; clone-2
As for B4, the concentration giving a half-maximal response (EC50) is 0.0454 µg/mL in [2]; 0.0481 µg/mL in assay [6]; 0.0425 µg/mL in assay [3]; 0.052 µg/mL in assay [7]; 0.0467 µg/mL in assay [8]; 0.0438 µg/mL in assay [9]. Further, the EC50 in [10] amounted to 0.045 µg/mL; in assay [11] it was 0.0483 µg/mL; in assay [12], 0.0445 µg/mL; in [13], 0.0412 µg/mL. The same molecule registered a Kd in assay [4] of 492 pM. The molecule also had a koff in assay [4] of 0.000328 s⁻¹. The molecule also had a kon in [4] of 666000 M⁻¹ s⁻¹.

B5: humanized 3F8 antibody hu3F8-3 (antibody, human IgG1, kappa, V domains shown)
VH: QVQLQESGPGLVKPSETLSLTCTVSGYSITSAYYWNWIRQPFGKGLEWMGYISYDGRNNFNPSLKNRVSISRDTSKNQFSLKLSSVTAADTATYYCARDGDYDYFDYWGQGTTVTVSS
VL: DIQMTQSPSSLSASVGDRVTITCRASQDISNYLNWYQQKPGKAPKLLIYYTSILHSGVPSRFSGSGSGTDYTFTISSLQPEDIATYFCQQGDTLPPTFGGGTKLEIKR
notes: also called Clone 3; clone-3
For the molecule B5, the EC50 came to 0.0424 µg/mL in assay [2]; 0.047 µg/mL in assay [6]; 0.0423 µg/mL in [3]; 0.0413 µg/mL in assay [7]; 0.0374 µg/mL in assay [8]; 0.0336 µg/mL in [9]. The EC50 stood at 0.0387 µg/mL in assay [10], 0.0417 µg/mL in [11], 0.0394 µg/mL in assay [12] and 0.0381 µg/mL in assay [13]. This molecule displayed a Kd in assay [4] of 540 pM. The koff in [4] is 0.000348 s⁻¹. The same molecule displayed a kon in assay [4] of 644000 M⁻¹ s⁻¹.

B6: humanized 3F8 antibody hu3F8-1 (antibody, human IgG1, kappa, V domains shown)
VH: QVQLQESGPGLVKPSETLSLTCTVSGYSITSAYYWNWIRQPPGKGLEWIGYISYDGRNNFNPSLKNRVTISVDTSKNQFSLKLSSVTAADTAVYYCARDGDYDYFDYWGQGTTVTVSS
VL: DIQMTQSPSSLSASVGDRVTITCRASQDISNYLNWYQQKPGKAPKLLIYYTSILHSGVPSRFSGSGSGTDYTFTISSLQPEDIATYFCQQGDTLPPTFGGGTKLEIKR
notes: also called Clone 1; clone-1
Consider B6, for which the EC50 in assay [2] came out at 0.0392 µg/mL; in assay [6], 0.0423 µg/mL; in assay [3], 0.0454 µg/mL; in assay [7], 0.041 µg/mL; in assay [8] it was 0.0443 µg/mL; in assay [9], 0.0386 µg/mL. The EC50 in [11] is 0.0381 µg/mL; in [12], 0.0409 µg/mL; in assay [13], 0.039 µg/mL; in assay [14], 0.0387 µg/mL. This molecule also returned a Kd in assay [4] of 1090 pM. Also, in assay [4], the koff is 0.000612 s⁻¹. In [4], this molecule returned an association rate constant (kon) of 560000 M⁻¹ s⁻¹.
